# Source: the nanobody polyreactivity screen of Harvey et al. (2022)
# Test: yeast display, Sf9 membrane polyspecificity reagent, FACS + sequencing; frameworks hold sequencing errors
# Summary of the method: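 Galactose-induced (36–48 hours) yeast carrying a synthetic nanobody display library were exposed to 10% biotinylated, detergent-solubilized Sf9 membrane reagent at 4 °C for 1 hour. FACS followed streptavidin microbead enrichment, using low and high (top ~1%) gates for expression (anti-HA) and reagent binding (streptavidin). Colony PCR, MiSeq 2 × 250 sequencing and CDR-length filtering followed. Labels for polyreactivity reflect the gate of origin.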
row,Sequence,polyreactivity (PSR sort gate)
1,QVQLVESGGGIVQAGGSLRLSCAASGSIFFYYAMGWFRPAPGQERELVAAITSSGGTTYYADSVKGRFTISRDNAKNTVYLEMNSLKPEDTAVYDCNALTVGQRDYDYWGQGTQVTVSS,high polyreactivity
2,QVQLVESGGGIVQAGGSLRLSCAASGSIFYGYAMGWYRQAPGNERELVAAISSGGRTKYADSVKGRFTISRDNAKNTVYLQMNSLKPEDTAVYYCNVSYLVYRWNFGWSMDYWGQGTQVTVSP,low polyreactivity
3,QVQLVESGGGIVQAGGSLRLSCAASGSIQRYNDMGWYRQAPGKERELVAAISRSGGSTYYTDSVKGRFTISRDNAKNTDYLQMNSLKPEDTAVYFCYKASYTTVYAKYYYWGLGTQVTVSS,high polyreactivity
4,QVQLVESGGGIVQAGGSLRLSCAASGSTFATYAMGWYRQAHGKERELVAAITRSGGITYYADSVKGRFTISRDNAKKTVYLHMKSLKPEDTAVYYCNARTRSPTFSGRYYWGQATQVTVSS,high polyreactivity
5,QVQLVESGGGIVQAGGSLRLSCAASGSTFDGYAMGWYRQAPGKERELVAAITRSGGSTYYADSVKGRFTISRDNAKNTVYLQMNSLKPEDTEVYYCNKYGYKGGVGYDYWGQGTQVTVSS,high polyreactivity
6,QVQLVESGGGIVQAGGSLRLSCAASGSTFNDNAMGWYRQAPGNERELVAAITGGGGRTYYADSVKGRFTISRDNAKNTVYLQMNSLKPEATAVYYCNRGATFEYWGHGTQVTVSS,low polyreactivity
7,QVQLVESGGGIVQAGGSLRLSCAASGSTFQTYVMGWYRQAPGKERELVAAISSGGSTNYADSVKGRFTISRDNAKNTVYLQMNSLKPEDTAVYYCAKRWPYFRRGKDGYWGQGTQVTVSS,low polyreactivity
8,QVQLVESGGGIVQAGGSLRLSCAASGSTFRGYAMGWYRQAPGKERELVAAITYISDSTYYADSVKGRFTISRDNAKNTVYLQMNCLKPVDTAVYYCNAYYDGDWRYTSQETGDHWGQGTQVTVSS,low polyreactivity
9,QVQLVESGGGIVQAGGSLRLSCAASGSTFSSYAMGWYRQAPGKERELVAGITNSGGSTYYADSVKGRFTISRDNAKNTVYLQMNSLKPEDTAVYYCAAFPRTYSGYYYWGQGTQVTVSS,high polyreactivity
10,QVQLVESGGGIVQAGGSLRLSCAASGSTFVNYTMGWYRQAPGKERELVATITWSGDSTYYADSVKGRFTISRDNAKNTVYLQMNSVKPEDTAVYYCAGAPLETYYYWGQGTQVTVSS,low polyreactivity
11,QVQLVESGGGIVQAGGSLRLSCAASGSTSRDYAMGWYRTAPGKERELVAAITWSGGRTYYADSVKGRFTISRDNAKNTVYLQMNSLKPEDTAVYYCAAYHREGRRDDYWGQGTQVTVSS,low polyreactivity
12,QVQLVESGGGIVQAGGSLRLSCAASGYIFKYYAMGWYRQAPGKERELVAAITGGVSTNYADSVKGRFTISRDNAKNTVYLQMNSLKPEDTAVYYCAAAITPSDTGSEYDYWGQGTQVTVSS,low polyreactivity
13,QVQLVESGGGIVQAGGSLRLSCAASGYIFQYYAMGWYRQAPGKERELVAAITGGGSTKYADSVKGRFTISRDNAKNTVYLQMNSLKPEDTAVYYCAASLWYRISKYDYWGQGTQVTVSS,high polyreactivity
14,QVQLVESGGGIVQAGGSLRLSCAASGYTFRGNVMGWYRQAPGKERELVAAISRSGGSTYYADSVKGRFTISRDNAKNTVYLQMYCLKPADTAVHYCAKKPTSTYQQDSPRWSDYWGQGTQVTVSS,high polyreactivity
15,QVQLVESGGGIVQAGGSLRLSCAATGRTFGYNAMGWYRQAPGKERELVAAIRTIGDSTYYADSVKGRFTISRDNAKNTVYLQMNSLKPEDTAVYYCAARKLRSRYDYWGQGTQVTVSS,high polyreactivity
16,QVQLVESGGGIVQAGGSLRLSCAGSGRTFLWNAMGWYRQAPGKERELVARINLSGGRTYYADSVKGRFTISRDNAKKTVNLQMNSLKPEDTAFYYCAATVVRYRRDSWGQGTQVTVSS,low polyreactivity
17,QVQLVESGGGIVQAGGSLRLSCPASGSIFDTYAMGWYRPAPGKEREMVASWSGGSTYYADSVKGRFTISRDNAKNTVYLQMISLKPEDTAVDYCAKDYYVQPPGTRDDYWGQGSQVTVSS,low polyreactivity
18,QVQLVESGGGIVQAGGSLRLSFAASGSIFEINALGWYRQAPGKERELVAAITGSGGSTHYADSVKGRFTISRDTAKNTVYLQMNSLKPEDTAVYYCARTQRYDYGYDYWGQGTQVTVSS,low polyreactivity
19,QVQLVESGGGIVQAGGSLRLSIAASGNILNGNVMGWSRPEPGKERELVAAITSGGDTYYADSVKGRFTISRDNAKNTVYFQMNSLKPEDTAVYYCAADRPGQPKYEYWGQGTQVTVSS,low polyreactivity
20,QVQLVESGGGIVQAGGSLRLSSAASGFIFRYYAMGWYRQARGNEREWVAAISSGGRTSYADSVKGRFTISRDNAKNTVYLQMNSLTPEDTAVYYCAADRWRCLFYYGNDYWGQGTQVTVSS,high polyreactivity
21,QVQLVESGGGIVQAGGSLRLSSAASGNKFSLNGMGWYRQAPGKEREFVAAITWSVGSRYYADSVKGRLTISRDNAKHTVYLPMNILKPEDTAVYYCAATVSDLYKIEYYYWGQGTQVSVSS,low polyreactivity
22,QVQLVESGGGIVQAGGSLRLSWAASGRNFLDYTMGWYRQAHGKERELVAAIRTSAGSTYYADSVKGRFTISRDNAKNTVYLQMNILKPEYTAVYYCAAEYYVQYYYRYDYWGQGTQVTVSS,low polyreactivity

row,Sequence,polyreactivity (PSR sort gate)
1,QVQLVESGGGIVQAGGSLSLSCAASGRSFRYYAMGWYRQAPGKEREMVAAIDTSSGSTYYADSVKGRFTISRDNAMNTVFLQMNSLKPEDTAVYYCNATWWIPLIYDYWGQGTHVTVSS,low polyreactivity
2,QVQLVESGGGIVQAGRSLRLRCAASGSTFTPYGMGWYRQAPGKESELVAAITVSGGRTYYADSVKGRFTISRDNANNTVSLVMNSLKPEDTAVYYCAAVYLRADGDYDYWGQGTQVNVSS,low polyreactivity
3,QVQLVESGGGIVQAGVSLRLSCAASGINIDYYAMGWYRQAPGKERELVAAITSGGSTSYADSVKGRFTISRDNAKNTVYLQMNSLKAEDTAVYYCNTEPSGYESGYWGQGTQVTVSS,low polyreactivity
4,QVQLVESGGGIVQEGGSLRLSCAASGSTFDQNGMGGYRQAPGKERELVATISTSAGTYYADSVKGRFTISRDNAKNTVYLQMNSLKPEDTAVYYCNADLGGQYKEFDYWGQGTQVTVSS,low polyreactivity
5,QVQLVESGGGIVQSGGSLRLSCAASGRTFSSYAMGRYRQAPGKEMALVAAINRGGGSTYYADSVKGRFTISRDNAKNTVYLQMNSLKPEDTAVYYCNARSKLTYEYDYWGQGTQVTVSS,high polyreactivity
6,QVQLVESGGGKLQAGGSLRLSCAASGIILYVYAMGWYRQAPGKARELVAAITWSGGSTYYADSEKGRFTISRDNAKNTVYLQMNSLKPEDTAVYYCAVDVHTSADASLPQEYDYWGPGTQVTVSS,low polyreactivity
7,QVQLVESGGGKVQAGGSLRLSCAASGRIFYLNAMGWYRQAPGKEREFVAAITRNGGNTYYADSVKGRFTISRDNAKNTVYLQMNSLKPEDTAVYYCNAKYWPFSRWYYYWGQGTQVTVSS,high polyreactivity
8,QVQLVESGGGLDPAGGSLRLSCAASGITFSYYAMGWYRQAPGKERELVAAISSSGSTYYADSVKGRFTISRDNAKNTDYLQMNSLKPEDTAVYYCAAEIRYYEYDYWGQGTQVTVSS,low polyreactivity
9,QVQLVESGGGLDQAAGSLRLSCAASGSNFQWYTMGWYRQAPGKERELVAAITWSGASTYYADSVKGRFTISRDNAKNTVYLQMNSLKPEDTAVYYCAADWRRGTGFYYWGQGTQVTVSS,high polyreactivity
10,QVQLVESGGGLDQAGCSLRISCAASGRIFIQNTMGWYRQAPGKERELVAAITRSGGRTYYADSVKGRFTFSRDNAKNTVYLQMNSLKPEDTAVYYCNRRPATRAYLYDYWGQGTQVTVSS,high polyreactivity
11,QVQLVESGGGLDQAGGCLRLSSAASGIIFYYNRMGCDRQAPGKERDLVADISGDGSTNYADSVKGRFTISRDNAKNTLYLQINSLKPDDTAFYYCNSDDIFRPRDDLYDYWGQGTQVTVSS,low polyreactivity
12,QVQLVESGGGLDQAGGRLRLSCAASGFTIRDNAMGWYRQAPGKEMELVAAISRSGDSTNYADSVKGRFTISRDNAKNTVYLQMNSLKPEDTAVYYSAAKRRYTTYDYWGQGTLVTVSS,high polyreactivity
13,QVQLVESGGGLDQAGGSLRLICAASGRIFVYYTMVWYRQAPGKERELVAAITGSGGSTYYADSVKGRFTISRDNAKNTVYLQMNSLKPEDTAVYYCAVYDSYRSRTHRYPATFAYGSWGQGNQVTVSS,high polyreactivity
14,QVQLVESGGGLDQAGGSLRLSCAASASIFQRSAKCWYRQAPGKETELVAAITNGGGSTYYADSVKGRFTISRDNAMNTVYLQMNSLKPEDTAVYYCAKDGHSYYPWEYDYWVQGTQVTVSS,low polyreactivity
15,QVQLVESGGGLDQAGGSLRLSCAASGFIFVRNAMGWYRQAPGKERELVAAITGRGGRTYYADSVKGRFTISRDNAKNTVYLQMNSLKPEDTAVYYCAKDSPDDHFGYWGQGTQVTVSS,high polyreactivity
16,QVQLVESGGGLDQAGGSLRLSCAASGFTFARYTMGWYRQAPGKEREFVAAISWSGGRTYYADSVKGRFTISRDNAKNTVYLQMNSLKPEDTAVYYCAARRKTTKYDYWGQGTQVTVSS,high polyreactivity
17,QVQLVESGGGLDQAGGSLRLSCAASGFTSGYNVLGWYRQAPGTARELVAAISWRGTSTYYADSVKGRFTISRDNAKNTVYLQMNSLKPEDTAVYYCAARQRWYWRGYDYWGQGTQVTVSS,high polyreactivity
18,QVQLVESGGGLDQAGGSLRLSCAASGGIFYHNAMGWYRQAPGKERELVAVISWSRTRTYYADSVKGRFTISRDNAKNTVYLQMNILTPDDTAVYYCAASPDPYWVRMDYWGQGTQVNVSS,high polyreactivity
19,QVQLVESGGGLDQAGGSLRLSCAASGGTFSNYAMGWYRQATGKERELVAAISESGGSTYYADSVKGRFTISRDNAKNTVYLQMNSLKPEDTAVYYCAVGTRFYVPRRFDYWGQGSQVTVSS,high polyreactivity
20,QVQLVESGGGLDQAGGSLRLSCAASGIIFRNYAMGWYRQAPGKERELVATITGDGGSTYYADSVKGRFTISRDNAKNTVYLQMNSLKPEDTAVYYCNADVSKRGWTTYWYGYGYYYWGQGTQVTVSS,low polyreactivity
21,QVQLVESGGGLDQAGGSLRLSCAASGIIFVKYTMGWYRQAPGTERELVAAISRSGGSTYYADSVKGRFTISRDNAKNTVYLQMNSLKPEDTAVYYCNAVSRKVYPGPMDYWGQGTQVTVSS,high polyreactivity
